In patent US8211429 (dated 2012):
Read-outs that look alike come from different tables or passages of the source.

T1: murine NRP2 (mouse, UniProt O35375)
T1 chain: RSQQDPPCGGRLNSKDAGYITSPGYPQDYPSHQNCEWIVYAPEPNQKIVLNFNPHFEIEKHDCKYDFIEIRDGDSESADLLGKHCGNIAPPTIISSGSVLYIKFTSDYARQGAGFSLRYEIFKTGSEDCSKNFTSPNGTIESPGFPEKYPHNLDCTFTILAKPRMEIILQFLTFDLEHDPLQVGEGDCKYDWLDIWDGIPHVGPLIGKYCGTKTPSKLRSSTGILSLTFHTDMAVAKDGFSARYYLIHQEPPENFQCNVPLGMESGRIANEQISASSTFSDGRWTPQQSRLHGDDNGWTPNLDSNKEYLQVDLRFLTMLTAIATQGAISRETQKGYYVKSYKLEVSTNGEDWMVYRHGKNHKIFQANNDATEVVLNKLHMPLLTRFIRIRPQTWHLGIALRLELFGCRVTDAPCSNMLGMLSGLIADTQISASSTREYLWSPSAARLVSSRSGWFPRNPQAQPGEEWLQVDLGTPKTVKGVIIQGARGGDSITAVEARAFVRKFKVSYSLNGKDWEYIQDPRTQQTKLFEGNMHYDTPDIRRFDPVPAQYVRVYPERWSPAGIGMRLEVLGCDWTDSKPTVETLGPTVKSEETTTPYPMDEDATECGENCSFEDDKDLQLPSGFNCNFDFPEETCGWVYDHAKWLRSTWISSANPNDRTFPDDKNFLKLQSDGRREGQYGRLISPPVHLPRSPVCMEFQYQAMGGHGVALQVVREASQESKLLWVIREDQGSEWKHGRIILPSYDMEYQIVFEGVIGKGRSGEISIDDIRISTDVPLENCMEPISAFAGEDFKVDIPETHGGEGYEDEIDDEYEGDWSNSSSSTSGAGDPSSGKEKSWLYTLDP

T2: human NRP2 (human, UniProt O60462)
T2 chain: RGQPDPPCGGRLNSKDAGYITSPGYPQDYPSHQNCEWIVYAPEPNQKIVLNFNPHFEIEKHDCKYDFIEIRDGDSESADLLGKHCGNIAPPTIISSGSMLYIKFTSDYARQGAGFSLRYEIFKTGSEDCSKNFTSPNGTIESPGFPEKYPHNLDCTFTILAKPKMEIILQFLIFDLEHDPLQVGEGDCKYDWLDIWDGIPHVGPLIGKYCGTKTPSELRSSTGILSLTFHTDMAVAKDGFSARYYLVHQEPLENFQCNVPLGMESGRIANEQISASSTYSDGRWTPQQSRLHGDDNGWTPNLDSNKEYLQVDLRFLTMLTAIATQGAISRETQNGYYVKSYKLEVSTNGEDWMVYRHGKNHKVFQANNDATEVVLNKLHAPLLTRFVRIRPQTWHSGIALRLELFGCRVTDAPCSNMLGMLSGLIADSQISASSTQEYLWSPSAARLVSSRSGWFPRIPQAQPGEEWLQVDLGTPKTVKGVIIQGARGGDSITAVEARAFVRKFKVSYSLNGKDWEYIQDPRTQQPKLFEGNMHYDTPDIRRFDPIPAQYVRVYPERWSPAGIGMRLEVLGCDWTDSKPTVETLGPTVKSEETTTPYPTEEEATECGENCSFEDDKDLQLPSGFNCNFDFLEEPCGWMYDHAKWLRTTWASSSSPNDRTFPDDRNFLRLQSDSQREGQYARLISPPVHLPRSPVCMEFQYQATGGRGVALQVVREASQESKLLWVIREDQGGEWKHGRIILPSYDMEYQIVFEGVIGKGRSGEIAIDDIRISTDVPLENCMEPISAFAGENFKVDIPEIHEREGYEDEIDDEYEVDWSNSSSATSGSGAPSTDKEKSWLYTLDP

T3: murine NRP1 (mouse, UniProt P97333)
T3 chain: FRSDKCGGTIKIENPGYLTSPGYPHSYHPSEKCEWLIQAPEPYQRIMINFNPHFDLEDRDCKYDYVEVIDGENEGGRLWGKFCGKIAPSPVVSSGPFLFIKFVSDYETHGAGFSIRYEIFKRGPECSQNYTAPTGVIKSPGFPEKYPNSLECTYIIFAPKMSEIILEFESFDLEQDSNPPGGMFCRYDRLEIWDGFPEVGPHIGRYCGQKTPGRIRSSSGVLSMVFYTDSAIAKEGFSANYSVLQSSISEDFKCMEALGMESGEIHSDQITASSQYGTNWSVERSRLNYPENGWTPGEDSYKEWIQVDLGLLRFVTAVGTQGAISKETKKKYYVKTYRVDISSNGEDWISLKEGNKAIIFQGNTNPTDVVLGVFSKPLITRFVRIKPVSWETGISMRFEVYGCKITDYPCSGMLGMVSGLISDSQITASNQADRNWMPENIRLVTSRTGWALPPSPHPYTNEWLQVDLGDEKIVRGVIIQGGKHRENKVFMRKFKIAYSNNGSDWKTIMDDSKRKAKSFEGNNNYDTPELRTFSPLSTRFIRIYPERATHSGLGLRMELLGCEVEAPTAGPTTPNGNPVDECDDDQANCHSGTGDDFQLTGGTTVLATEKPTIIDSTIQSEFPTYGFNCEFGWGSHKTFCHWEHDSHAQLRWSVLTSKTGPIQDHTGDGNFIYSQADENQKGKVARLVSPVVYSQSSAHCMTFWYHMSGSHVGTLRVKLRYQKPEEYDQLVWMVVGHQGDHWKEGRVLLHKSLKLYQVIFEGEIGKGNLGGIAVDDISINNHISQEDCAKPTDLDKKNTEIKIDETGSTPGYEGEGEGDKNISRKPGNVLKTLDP


How the values were obtained:
murine NRP2 [1] = target: T1, murine NRP2; test: SPR up to 500 nM
BSA = BSA (bovine, UniProt P02769); test: SPR up to 500 nM
ErbB2-ECD [2] = target: T4, ErbB2-ECD (human, UniProt P04626); test: SPR up to 500 nM
human NRP2 [3] = target: T2, human NRP2; test: SPR up to 500 nM
human NRP1 [4] = target: T5, human NRP1 (human, UniProt O14786); test: competition phage ELISA
murine NRP1 [5] = target: T3, murine NRP1; test: SPR 25C
human NRP1 [6] = target: T5, human NRP1; test: SPR 25C
murine NRP1 [7] = target: T3, murine NRP1; test: competition phage ELISA
murine NRP1 [8] = target: T3, murine NRP1; test: competition phage ELISA
ErbB2-ECD [9] = target: T4, ErbB2-ECD; test: SPR
human NRP1 [10] = target: T5, human NRP1; test: competition phage ELISA; remark: listed apart in the source
human NRP2 [11] = target: T2, human NRP2; test: SPR
murine NRP2 [12] = target: T1, murine NRP2; test: SPR

BSA, sequence (P02769 25-607): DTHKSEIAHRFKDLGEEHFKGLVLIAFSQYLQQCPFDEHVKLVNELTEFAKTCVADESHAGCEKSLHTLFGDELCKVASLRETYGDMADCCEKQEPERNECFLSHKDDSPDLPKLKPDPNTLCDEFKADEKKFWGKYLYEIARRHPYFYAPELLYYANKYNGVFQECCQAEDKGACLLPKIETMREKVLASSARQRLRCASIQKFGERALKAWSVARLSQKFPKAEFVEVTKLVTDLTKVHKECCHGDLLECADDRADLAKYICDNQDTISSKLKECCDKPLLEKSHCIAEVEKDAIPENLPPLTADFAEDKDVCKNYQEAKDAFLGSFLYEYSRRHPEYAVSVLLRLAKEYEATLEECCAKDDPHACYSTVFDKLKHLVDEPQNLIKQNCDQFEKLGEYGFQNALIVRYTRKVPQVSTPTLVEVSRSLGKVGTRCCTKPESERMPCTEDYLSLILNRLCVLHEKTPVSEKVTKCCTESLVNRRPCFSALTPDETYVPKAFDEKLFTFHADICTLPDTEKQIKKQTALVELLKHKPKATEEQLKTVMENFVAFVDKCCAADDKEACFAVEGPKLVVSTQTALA

Binder | IC50 (human NRP1 [4]) [nM] | Kd (murine NRP1 [5]) [nM] | Kd (human NRP1 [6]) [nM] | IC50 (murine NRP1 [7]) [nM] | further results
YW64.3 (antibody, V domains shown) VH: EVQLVESGGGLVQPGGSLRLSCAASGFSFSSEPISWVRQAPGKGLEWVSSITGKNGYTYYADSVKGRFTISADTSKNTAYLQMNSLRAEDTAVYYCARWGKKVYGMDVWGQGTLVTVSS VL: DIQMTQSPSSLSASVGDRVTITCRASQSISSYLAWYQQKPGKAPKLLIYGASSRASGVPSRFSGSGSGTDFTLTISSLQPEDFATYYCQQYMSVPITFGQGTKVEIKR |  |  |  |  | binding result (murine NRP2 [1]): no binding; binding result (BSA): no binding; binding result (ErbB2-ECD [2]): no binding; binding result (human NRP2 [3]): no binding
YW107.4.52 (antibody, V domains shown) VH: EVQLVESGGGLVQPGGSLRLSCAASGFTFSSYAMSWVRQAPGKGLEWVSQISPAGGYTNYADSVKGRFTISADTSKNTAYLQMNSLRAEDTAVYYCARELPYYRMSKVMDVWGQGTLVTVSS VL: DIQMTQSPSSLSASVGDRVTITCRASQYFSSYLAWYQQKPGKAPKLLIYGASTLASGVPSRFSGSGSGTDFTLTISSLQPEDFATYYCQQYIRSPLTFGQGTKVEIKR | 0.22 | 1.2 | 0.9 | 1.1 | 
YW107.4.38 (antibody, V domains shown) VH: EVQLVESGGGLVQPGGSLRLSCAASGFTFSSYAMSWVRQAPGKGLEWVSQISPAGGYTNYADSVKGRFTISADTSKNTAYLQMNSLRAEDTAVYYCARELPYYRMSKVMDVWGQGTLVTVSS VL: DIQMTQSPSSLSASVGDRVTITCRASQYLSSYLAWYQQKPGKAPKLLIYGASSRASGVPSRFSGSGSGTDFTLTISSLQPEDFATYYCQQYLRSPITFGQGTKVEIKR | 0.28 | 3.2 | 1.8 | 1.4 | 
YW107.4 (antibody, V domains shown) VH: EVQLVESGGGLVQPGGSLRLSCAASGFTFSSYAMSWVRQAPGKGLEWVSQISPAGGYTNYADSVKGRFTISADTSKNTAYLQMNSLRAEDTAVYYCARELPYYRMSKVMDVWGQGTLVTVSS VL: DIQMTQSPSSLSASVGDRVTITCRASQSISSYLAWYQQKPGKAPKLLIYGASSRASGVPSRFSGSGSGTDFTLTISSLQPEDFATYYCQQYYSSPLTFGQGTKVEIKR | 6.1 | 11 | 5 | 38 | binding result (murine NRP2 [1]): no binding; IC50 (murine NRP1 [8]): 38 nM; binding result (ErbB2-ECD [9]): no binding; IC50 (human NRP1 [10]): 6.1 nM; binding result (BSA): no binding; binding result (human NRP2 [3]): no binding
YW107.4.87 (antibody, V domains shown) VH: EVQLVESGGGLVQPGGSLRLSCAASGFTFSSYAMSWVRQAPGKGLEWVSQISPAGGYTNYADSVKGRFTISADTSKNTAYLQMNSLRAEDTAVYYCARELPYYRMSKVMDVWGQGTLVTVSS VL: DIQMTQSPSSLSASVGDRVTITCRASQYFSSYLAWYQQKPGKAPKLLIYGASSRASGVPSRFSGSGSGTDFTLTISSLQPEDFATYYCQQYLGSPPTFGQGTKVEIKR |  |  |  |  | binding result (human NRP2 [11]): no binding; binding result (murine NRP2 [12]): no binding

Now from value to binder, other results behind:

IC50 (human NRP1 [4]) [nM] | Kd (murine NRP1 [5]) [nM] | Kd (human NRP1 [6]) [nM] | IC50 (murine NRP1 [7]) [nM] | Binder | further results
0.15 | 0.8 | 0.8 | 0.8 | YW107.4.63 (antibody, V domains shown) VH: EVQLVESGGGLVQPGGSLRLSCAASGFTFSSYAMSWVRQAPGKGLEWVSQISPAGGYTNYADSVKGRFTISADTSKNTAYLQMNSLRAEDTAVYYCARELPYYRMSKVMDVWGQGTLVTVSS VL: DIQMTQSPSSLSASVGDRVTITCRASQYLSSYLAWYQQKPGKAPKLLIYGASSSESGVPSRFSGSGSGTDFTLTISSLQPEDFATYYCQQYISVPLTFGQGTKVEIKR | 
 | 2.1 | 1 | 1.1 | YW107.4.18 (antibody, V domains shown) VH: EVQLVESGGGLVQPGGSLRLSCAASGFTFSSYAMSWVRQAPGKGLEWVSQISPAGGYTNYADSVKGRFTISADTSKNTAYLQMNSLRAEDTAVYYCARELPYYRMSKVMDVWGQGTLVTVSS VL: DIQMTQSPSSLSASVGDRVTITCRASQYFSSYLAWYQQKPGKAPKLLIYGASTHESGVPSRFSGSGSGTDFTLTISSLQPEDFATYYCQQYIRSPLTFGQGTKVEIKR | 
0.23 | 31 | 1.4 | 0.8 | YW107.4.76a (antibody, V domains shown) VH: EVQLVESGGGLVQPGGSLRLSCAASGFTFSSYAMSWVRQAPGKGLEWVSQISPAGGYTNYADSVKGRFTISADTSKNTAYLQMNSLRAEDTAVYYCARELPYYRMSKVMDVWGQGTLVTVSS VL: DIQMTQSPSSLSASVGDRVTITCRASQYISSYLAWYQQKPGKAPKLLIYGASRRASGVPSRFSGSGSGTDFTLTISSLQPEDFATYYCQQYLRSPHTFGQGTKVEIKR | 
